Reference: publication doi:10.1101/2022.07.21.500812 (bioRxiv, 2022)

Biological target: human GPC3 residues 32-483 (hGPC3^core) (human, UniProt P51654 32-483, N-linked glycans at N124 and N241)
Assay: SPR

human GPC3 residues 32-483 (hGPC3^core), sequence (P51654 32-483): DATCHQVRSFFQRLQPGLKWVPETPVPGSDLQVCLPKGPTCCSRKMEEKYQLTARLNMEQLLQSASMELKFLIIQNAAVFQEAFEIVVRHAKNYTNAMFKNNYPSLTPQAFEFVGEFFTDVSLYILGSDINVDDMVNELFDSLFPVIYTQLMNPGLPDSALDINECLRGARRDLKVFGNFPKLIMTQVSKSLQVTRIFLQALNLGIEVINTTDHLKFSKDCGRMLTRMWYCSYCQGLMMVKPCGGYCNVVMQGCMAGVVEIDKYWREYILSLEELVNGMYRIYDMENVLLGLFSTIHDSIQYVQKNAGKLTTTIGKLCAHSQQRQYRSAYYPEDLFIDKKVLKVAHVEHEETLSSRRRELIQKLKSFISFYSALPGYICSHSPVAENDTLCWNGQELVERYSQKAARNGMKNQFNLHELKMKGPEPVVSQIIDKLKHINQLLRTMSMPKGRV

B1: mouse Unc5A ectodomain (mUnc5A^ecto, residues 1-359) (domain or fragment)
chain: not shown
**Q.** Does B1 bind?
**A.** Result: binds
